Results reported in PMC3021526, “Rise and Fall of an Anti-MUC1 Specific Antibody” (PLoS ONE, 2011).

T1: MUC1 15 aa peptide with cysteine (…-C) (human)
T1 sequence (peptide): APDTRPAPGSTAPPAC

T2: MUC1 15 aa peptide with cysteine (APDTRPAPGSTAPPA-C) (Homo sapiens (synthetic peptide))
T2 construct: 15 residues of the tandem repeat (VNTR) of human MUC1; added C-terminal cysteine, used for coupling to the chip; also called MUC1 peptide; MUC1 peptide antigen
T2 chain: APDTRPAPGSTAPPAC

T3: MUC1 32 aa peptide with a C-terminal cysteine (APDTRPAPGSTAPPAHGVTSAPDTRPAPGSTA-C) (Homo sapiens (synthetic peptide))
T3 construct: 32 residues of the tandem repeats (VNTR) of human MUC1; added C-terminal cysteine; also called MUC1 peptide antigen (32mer cys); MUC1 32mer Cys peptide
T3 chain: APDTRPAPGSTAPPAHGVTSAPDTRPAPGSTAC


Legend:
[1] = target: T1, MUC1 15 aa peptide with cysteine (…-C) (human); assay: SPR; Biacore 2000; about 50 RU MUC1 15 aa peptide with cysteine coupled on a CM5 chip (NHS/EDC, PDEA); serial dilutions of scFv (0-400 nM) at 50 µL/min; 1:1 Langmuir separate fitting; IIB6 by steady-state model
[2] = target: synthetic MUC1 glycopeptide APDT(GalNAc)… (human); assay: SPR; IIB6 on the MUC1 glycopeptide; data not shown
[3] = target: human anti-MUC1 scFv IIB6 (human); assay: SEC; 80 µg IMAC purified scFv on Superdex200 10/300, PBS, 0.5 mL/min; monomer to dimer
[4] = target: T2, MUC1 15 aa peptide with cysteine …; assay: SPR; Biacore 2000; about 50 RU MUC1 15 aa peptide with cysteine coupled on a CM5 chip (NHS/EDC, PDEA); serial dilutions of scFv (0-400 nM) at 50 µL/min; 1:1 Langmuir separate fitting; IIB6 by steady-state model; conditions: both partners purified
[5] = target: T3, MUC1 32 aa peptide with a C-terminal …; assay: ELISA; MUC1 32 aa peptide with C-terminal cysteine coated in PBS over night at 4°C; dilution series of purified scFv, scFv-Fc or IgG in 2% M-PBST, 1.5 h at RT; scFv detected by 9E10 (c-myc), scFv-Fc and IgG by anti-human Fc HRP; conditions: both partners purified
[6] = target: affinity matured anti-MUC1 scFv HT220-M-G8 (human); assay: SEC; 80 µg IMAC purified scFv on Superdex200 10/300, PBS, 0.5 mL/min; monomer to dimer
[7] = target: MUC1 on MCF-7 cells (human (endogenous in MCF-7)) (UniProt P15941); assay: flow cytometry on cells; internalisation assay: MCF-7 cells with 10 µg/ml antibody on ice 1 h, washed, 1 h at 4°C; surface antibody detected by PE-conjugated mouse anti-human IgG
Chain of MUC1 on MCF-7 cells (human (endogenous in MCF-7)) (P15941 24-1255): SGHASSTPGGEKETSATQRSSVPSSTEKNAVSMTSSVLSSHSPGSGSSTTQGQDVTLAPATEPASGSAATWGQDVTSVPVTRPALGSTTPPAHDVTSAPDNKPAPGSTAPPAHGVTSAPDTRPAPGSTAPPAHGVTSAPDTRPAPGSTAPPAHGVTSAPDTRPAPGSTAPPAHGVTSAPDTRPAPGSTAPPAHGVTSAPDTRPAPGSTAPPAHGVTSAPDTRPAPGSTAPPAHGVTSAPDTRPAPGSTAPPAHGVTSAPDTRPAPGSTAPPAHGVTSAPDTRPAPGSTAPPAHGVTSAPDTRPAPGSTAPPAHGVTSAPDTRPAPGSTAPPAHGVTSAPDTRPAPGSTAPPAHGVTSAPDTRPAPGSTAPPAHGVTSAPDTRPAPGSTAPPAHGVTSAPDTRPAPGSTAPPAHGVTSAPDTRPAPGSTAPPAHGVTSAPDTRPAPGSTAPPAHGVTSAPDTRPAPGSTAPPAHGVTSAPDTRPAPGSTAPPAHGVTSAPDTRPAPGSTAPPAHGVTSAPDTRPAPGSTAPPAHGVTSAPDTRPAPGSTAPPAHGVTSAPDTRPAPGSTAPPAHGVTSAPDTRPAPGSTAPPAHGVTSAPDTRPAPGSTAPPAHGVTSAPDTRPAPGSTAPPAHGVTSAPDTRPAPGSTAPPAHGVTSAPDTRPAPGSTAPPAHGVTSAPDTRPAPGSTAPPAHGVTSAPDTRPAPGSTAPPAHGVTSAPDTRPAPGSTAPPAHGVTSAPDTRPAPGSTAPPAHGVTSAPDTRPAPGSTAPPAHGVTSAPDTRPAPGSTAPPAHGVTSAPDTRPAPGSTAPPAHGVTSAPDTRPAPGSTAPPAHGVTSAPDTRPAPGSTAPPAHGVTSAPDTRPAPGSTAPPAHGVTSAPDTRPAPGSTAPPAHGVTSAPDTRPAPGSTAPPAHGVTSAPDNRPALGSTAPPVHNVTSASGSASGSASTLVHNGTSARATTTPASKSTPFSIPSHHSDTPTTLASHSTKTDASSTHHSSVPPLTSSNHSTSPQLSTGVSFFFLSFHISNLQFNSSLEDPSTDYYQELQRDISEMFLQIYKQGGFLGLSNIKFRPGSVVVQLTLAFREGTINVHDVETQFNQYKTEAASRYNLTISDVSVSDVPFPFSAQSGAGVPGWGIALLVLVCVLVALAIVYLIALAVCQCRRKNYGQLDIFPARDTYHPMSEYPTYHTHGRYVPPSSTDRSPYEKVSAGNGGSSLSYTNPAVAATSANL

Kd [4] | koff [4] | kon [4] | Binder | further results
 |  |  | human anti-MUC1 scFv IIB6 (scFv, V domains shown) VH: QMQLVQSGAEVKKPGASVKVSCKASGYTFTGHYMHWVRQAPGQGLEWMGWIDPVTGGTKYAQNFQGWVTMTRDTSIRTAYMELSRLRSDDTAMYYCAREVTGDRGQFDKWGQGTLVTVAS VL: QSVLTQPPSVSVAPGKTARITCGGNNIGSKSVHWYQQKPGQAPVLVIYYDSDRPSGIPERFSGSNSGNTATLTISRVEAGDEADYYCQVWDSSSDWVFGGGTKLTVL | Kd [1]: 310 nM; Kd [2]: 230 nM; percent of the scFv dimerised [3]: 50%; stoichiometry N [3]: 2
≤ 1 nM | ≤ 1e-05 s⁻¹ | 72000 M⁻¹ s⁻¹ | affinity matured anti-MUC1 scFv HT186-G2 (scFv, V domains shown, From IIB6 by error-prone PCR (library A), off-rate panning; source: E. coli, IMAC purified; also culture supernatant from microtitre plates; not shown: c-myc, C-terminal, kept) VH: RMQLVQSGAEVKKPGASVKLSCKASGYTFAGHYMHWVRQAPGRGLEWMGWIDPVTGGTKYAQNFQGWVTMTRDTSIRTAYMELSRLRSDDTAMYYCAREVTGDRGQFDKWGQGTLVTVAS VL: QSVLTQPPSVSVAPGKTARITCGGNNIGSKSVHWYQQKPGQAPVLVIYYGSDRSSGIPERFSGSNSGNTATLTISRVEAGDEADYYCQVWDSSSDWVFGGGTKLTVL | 
1.3 nM | 2.1e-05 s⁻¹ | 35000 M⁻¹ s⁻¹ | affinity matured anti-MUC1 scFv HT186-B7 (scFv, V domains shown, From IIB6 by error-prone PCR (library A), off-rate panning; source: E. coli, IMAC purified; also culture supernatant from microtitre plates; not shown: c-myc, C-terminal, kept) VH: QMQLVQSGAEVKKPGASVKVSCKASGYTFTGHYMHWVRQAPGQGLEWMGWIDPVTGGTKYAQNFQGWVTMTRDTSIRTAYMELSRLRSDDTAMYYCAREVTGDRGQFDKWGQGTLVTVAS VL: QSVLTQPPSVSVAPGKTARITCGGNNIGSKSVHWYQQKPGQAPALVIYYGSYRPSGIPERFSGSNYGNTATLTIRRVEAGDEADYYCQVWDSSSDWVFGGGTKLTVL | 
 |  |  | HT186-G2 human IgG (antibody, V domains shown, as the VH of m4; human IgG heavy-chain constant region from the expression vector CHK622-08; as the VL of m4; C lambda derived from the vector CHL558-0; VH and VL ordered as synthetic genes, codon optimised for rat; also called HT186-G2 IgG) VH: RMQLVQSGAEVKKPGASVKLSCKASGYTFAGHYMHWVRQAPGRGLEWMGWIDPVTGGTKYAQNFQGWVTMTRDTSIRTAYMELSRLRSDDTAMYYCAREVTGDRGQFDKWGQGTLVTVAS VL: QSVLTQPPSVSVAPGKTARITCGGNNIGSKSVHWYQQKPGQAPVLVIYYGSDRSSGIPERFSGSNSGNTATLTISRVEAGDEADYYCQVWDSSSDWVFGGGTKLTVL | fold decrease of affinity against the scFv-Fc format [5]: ~10 fold
4.4 nM | 0.00022 s⁻¹ | 50000 M⁻¹ s⁻¹ | affinity matured anti-MUC1 scFv HT220-M-G8 (scFv, V domains shown, source: E. coli, IMAC purified; also culture supernatant from microtitre plates; not shown: c-myc, C-terminal, kept) VH: QMQLVQSGAEVMKPGASVKVSCKASGYSFTGHYMHWVRHAPGQGLEWMGWIDPVTGSTKYAQNFQGWVTMTRDTSISTAYMELSRLRSDDTAMYYCAREVTGDRGQFDKWGQGTLVTVAS VL: QSVLTQPPSVSVAPGKTARITCGGNNIGSKSVHWYQQKPGQAPVLVIYYGSDRPSGIPERFSGSNTGNMATLTISRVEAGDEADYYCQVWDSSSDWVFGGGTKLTVL | percent of the scFv dimerised [6]: 50%; stoichiometry N [6]: 2
2.1 nM | 0.0001 s⁻¹ | 49000 M⁻¹ s⁻¹ | affinity matured anti-MUC1 scFv HT200-3A-C1 (scFv, V domains shown, one potential N-glycosylation site in CDR2; From IIB6 by nested error-prone PCR (library B), panning in solution; source: E. coli, IMAC purified; also culture supernatant from microtitre plates; not shown: c-myc, C-terminal, kept) VH: QMQLVQSGAEVKKPGASVKVSCKASGYTFTGHYMHWVRQAPGQGLEWMGWIDPVTGGTKYAQNFQGWVTMTRDTSIRTAYMELSRLRSDDTAMYYCAREVTGDRGQFDKWGQGTLVTVAS VL: QSVLTQPPSVSMAPGETARITCGGNNIGSKSVHWYQQKPGQAPVLVIYNDSDRPSGIPERFSGSNSGKTATLTISRVEAGDEADYYCQVWDSSIDWVFGGGTKLTVL | 
3.7 nM | 0.00011 s⁻¹ | 29000 M⁻¹ s⁻¹ | affinity matured anti-MUC1 scFv HT220-M-D1 (scFv, V domains shown, one potential N-glycosylation site in CDR2; source: E. coli, IMAC purified; also culture supernatant from microtitre plates; not shown: c-myc, C-terminal, kept) VH: QMLLVQSGAEAKKPGASVKVSCKASGYTFTGHYMHWVRQAPGQGLEWMGWIDPVTGGTKYAQNFQGWVTMTRDTSIRTAYMELSRLRPDDTAMYYCAREVTGDRGQFDKWGQGTLVTVAS VL: QSVLTQPPSVSVVPGKTARIICGGNNIGSKSVHWYQQKPGQAPVLVIYNNSDRPSGIPERFSGSNSGNMATLTISRVEAGDESDYYCQVWDSSSDWVFGGGTRLTIL | 
0.57 nM | 7.2e-05 s⁻¹ | 38000 M⁻¹ s⁻¹ | affinity matured anti-MUC1 scFv HT186-D11 (scFv, V domains shown, From IIB6 by error-prone PCR (library A), off-rate panning; source: E. coli, IMAC purified; also culture supernatant from microtitre plates; not shown: c-myc, C-terminal, kept) VH: QMQLVQSEAELKKPGASVKVSCKASGYSFTGHYMHWVRQAPGQGLEWMGWIDPVTGGTKYAQNFQGWVTMTRDTSIRTAYLELSRLRSDDTAMYYCAREVTGDRGQFDKWGQGTLVTVAS VL: QSVLTQPPSVSVAPGKTARITCGGNNIGSKSVHWYQQKPGQAPALVIYYGSNRPSGIPERFSGSNSGNTATLTISRVEAGDEADYYCQVWDSSSDWVFGGGTKLTVL | 
 |  |  | HT186-D11 human IgG (antibody, V domains shown) VH: QMQLVQSEAELKKPGASVKVSCKASGYSFTGHYMHWVRQAPGQGLEWMGWIDPVTGGTKYAQNFQGWVTMTRDTSIRTAYLELSRLRSDDTAMYYCAREVTGDRGQFDKWGQGTLVTVAS VL: QSVLTQPPSVSVAPGKTARITCGGNNIGSKSVHWYQQKPGQAPALVIYYGSNRPSGIPERFSGSNSGNTATLTISRVEAGDEADYYCQVWDSSSDWVFGGGTKLTVL | percentage of MUC1 positive cells (4°C) [7]: 68%
